Consider one molecule from patent US20180002421A1 (INSERM INSTITUT NATIONAL DE LA SANTA ET DE LA RECHERCHE …, published 2018).

This assay addresses T1, orexin receptor type 1 (OX1R), recombinant, stably expressed on HEK cells (human, UniProt O43613 1-425).
T1 construct: whole, on cells; also called HEK-OX1R; hypocretin receptor type 1
T1 sequence (looked up): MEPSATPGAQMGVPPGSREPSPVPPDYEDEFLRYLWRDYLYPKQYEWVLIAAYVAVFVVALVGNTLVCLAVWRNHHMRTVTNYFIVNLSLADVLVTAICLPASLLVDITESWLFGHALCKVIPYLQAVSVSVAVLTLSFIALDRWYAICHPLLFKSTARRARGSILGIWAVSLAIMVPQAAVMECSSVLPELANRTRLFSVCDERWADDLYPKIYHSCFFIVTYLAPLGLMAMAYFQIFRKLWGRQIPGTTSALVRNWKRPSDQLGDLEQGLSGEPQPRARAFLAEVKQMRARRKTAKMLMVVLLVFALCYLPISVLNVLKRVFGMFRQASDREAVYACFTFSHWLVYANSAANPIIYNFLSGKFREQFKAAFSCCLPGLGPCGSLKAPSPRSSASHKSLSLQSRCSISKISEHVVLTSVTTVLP
Nature of the assay: competitive inhibition of 125I-OxA binding to HEK-OX1R cells.

B1: C2 antibody (antibody, V domains shown)
VH: EVQLVESGGSLVKPGGSLRLSCAASGFTFSNSYMNWVRQAPGKGLEWISSIYGSSRYIDYADFVKGRFTISRDNATNSLYLQMNSLRAEDTAVYYCVRSSSYYGSGMDVWGRGTLVTVSS
VL: QSVLTQPASVSGSPGQSITISCAGTSSDVGGYGSVSWYQQHPGKAPKLMIYYDSYRPSGVSNRFSGSKSGNTASLTISGLQAEDEADYYCSSNTNSSTRVFGGGTKLAVLG
notes: Human antibody from phage display; also called anti-OX1R antibody C2
Turning to B1, the IC50 is approximately 5 µM.
